# According to US20060110401A1, “Mixture of peptides from c and ns3 proteins of the hepatitis c virus and applications thereof” (priority 2002, published 2006):
# No end group written: not given here.
# T1: HLA-DP401 (DPB1*0401) (human), P20036
# T1 chain 1: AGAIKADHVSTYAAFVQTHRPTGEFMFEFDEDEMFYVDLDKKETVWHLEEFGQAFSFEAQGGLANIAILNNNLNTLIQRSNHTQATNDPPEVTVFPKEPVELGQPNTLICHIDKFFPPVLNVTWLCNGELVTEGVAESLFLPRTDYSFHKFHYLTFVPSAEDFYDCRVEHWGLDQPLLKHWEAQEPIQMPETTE
# T1 chain 2: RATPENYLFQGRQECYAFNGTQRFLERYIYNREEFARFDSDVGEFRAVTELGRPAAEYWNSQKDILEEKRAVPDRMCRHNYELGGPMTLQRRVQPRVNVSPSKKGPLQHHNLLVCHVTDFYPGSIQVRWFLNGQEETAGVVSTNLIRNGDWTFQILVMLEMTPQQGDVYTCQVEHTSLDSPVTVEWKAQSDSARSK
# T2: HLA-DR7 (DRB1*0701) (human)
# T2 chain 1: not shown
# T2 chain 2: not shown
# T3: HLA-DR4 (DRB1*0401) (human)
# T3 chain 1: not shown
# T3 chain 2: not shown
# T4: HLA-DRB5 (DRB5*0101) (human)
# T4 chain 1: not shown
# T4 chain 2: not shown
# T5: HLA-DR11 (DRB1*1101) (human)
# T5 chain 1: not shown
# T5 chain 2: not shown
# T6: HLA-DR1 (DRB1*0101) (human)
# T6 chain 1: not shown
# T6 chain 2: not shown
# T7: HLA-DR15 (DRB1*1501) (human)
# T7 chain 1: not shown
# T7 chain 2: not shown
# T8: HLA-DR13 (DRB1*1301) (human)
# T8 chain 1: not shown
# T8 chain 2: not shown
# T9: HLA-DR3 (DRB1*0301) (human)
# T9 chain 1: not shown
# T9 chain 2: not shown
# T10: HLA-DRB4 (DRB4*0101) (human)
# T10 chain 1: not shown
# T10 chain 2: not shown
# Experiments:
# [1] = target: HLA-DRB5 (DRB5*0101) (human); assay: competition binding; conditions: chains peptide; modification not given
# [2] = target: HLA-DR15 (DRB1*1501) (human); assay: competition binding; conditions: chains peptide; modification not given
# [3] = target: HLA-DR4 (DRB1*0401) (human); assay: competition binding; conditions: chains peptide; modification not given
# [4] = target: HLA-DR11 (DRB1*1101) (human); assay: competition binding; conditions: chains peptide; modification not given
# [5] = target: HLA-DR1 (DRB1*0101) (human); assay: competition binding; conditions: chains peptide; modification not given
# [6] = target: HLA-DRB3 (DRB3*0101) (human); assay: competition binding; conditions: chains peptide; modification not given
# [7] = target: HLA-DR13 (DRB1*1301) (human); assay: competition binding; conditions: chains peptide; modification not given
# [8] = target: T1, HLA-DP401 (DPB1*0401) (human), P20036; assay: competition binding; conditions: chains peptide; modification not given
# [9] = target: T2, HLA-DR7 (DRB1*0701) (human); assay: competition ELISA, purified HLA II; tracer biotinylated YKL
# [10] = target: T3, HLA-DR4 (DRB1*0401) (human); assay: competition ELISA, purified HLA II; tracer biotinylated HA 306-318
# [11] = target: T4, HLA-DRB5 (DRB5*0101) (human); assay: as above
# [12] = target: T5, HLA-DR11 (DRB1*1101) (human); assay: as above
# [13] = target: T6, HLA-DR1 (DRB1*0101) (human); assay: as above
# [14] = target: T7, HLA-DR15 (DRB1*1501) (human); assay: competition ELISA, purified HLA II; tracer biotinylated A3 152-166
# [15] = target: HLA-DRB4 (DRB4*0101) (human); assay: competition binding; conditions: chains peptide; modification not given
# [16] = target: HLA-DR3 (DRB1*0301) (human); assay: competition binding; conditions: chains peptide; modification not given
# [17] = target: HLA-DP402 (DPB1*0402) (human), P20036; assay: competition binding; conditions: chains peptide; modification not given
# [18] = target: T8, HLA-DR13 (DRB1*1301) (human); assay: competition ELISA, purified HLA II; unlabeled peptide against its own biotinylated tracer
# [19] = target: HLA-DR7 (DRB1*0701) (human); assay: competition binding; conditions: chains peptide; modification not given
# [20] = target: T9, HLA-DR3 (DRB1*0301) (human); assay: competition ELISA, purified HLA II; tracer biotinylated MT 2-16
# [21] = target: T10, HLA-DRB4 (DRB4*0101) (human); assay: competition ELISA, purified HLA II; tracer biotinylated E2/E168
binder,measurement,setting,value
AQGYKVLVLNPSVAATLGFGAYMSKAHGID [18N 1246-1275],IC50,[1],1250 nM
same,IC50,[2],58 nM
same,IC50,[3],5 nM
same,IC50,[4],40 nM
same,IC50,[5],1 nM
same,IC50,[6],> 30000 nM
same,IC50,[7],900 nM
same,IC50,[8],> 100000 nM
RSPVFTDNSSPPVVPQSFQVAHLHAPTGSGKSTK [17N 1206-1239],IC50,[1],350 nM
same,IC50,[2],10000 nM
same,IC50,[3],425 nM
same,IC50,[4],550 nM
same,IC50,[7],> 100000 nM
DAHFLSQTKQSGENL (modifications not checked) [29N 1569-1583],IC50,[9],3000 nM
same,IC50,[10],10500 nM
same,IC50,[11],21000 nM
same,IC50,[12],22 nM
same,IC50,[13],950 nM
same,IC50,[14],2800 nM
GHAVGIFRAAVCTRGVAKAVDF [15N 1174-1195],IC50,[8],17800 nM
GREILLGPADGMVSKGWRLLAPITAYAQQTR (modifications not checked) [8N 1007-1037],IC50,[2],30 nM
same,IC50,[3],10 nM
same,IC50,[15],60 nM
same,IC50,[4],1 nM
same,IC50,[7],1250 nM
same,IC50,[16],200 nM
same,IC50,[13],2 nM
KPGIYRFVAPGERPSGMFD [27N 1495-1513],IC50,[17],> 100000 nM
same,IC50,[1],2 nM
same,IC50,[2],150 nM
same,IC50,[3],1250 nM
same,IC50,[15],138 nM
same,IC50,[5],163 nM
same,IC50,[6],40000 nM
same,IC50,[7],> 100000 nM
same,IC50,[8],> 100000 nM
same,IC50,[16],> 100000 nM
WAGWLLSPRGSRPSW (modifications not checked) [3C 93-107],IC50,[13],6330 nM
TERVRLVTRHIYNREE (not fully specified) [B1 21-36 (nonbiotinylated)],IC50,[18],330 nM
KNQVEGEVQIVSTAAQTFLAT [10N 1052-1072],IC50,[19],7 nM
same,IC50,[15],400 nM
same,IC50,[4],200 nM
same,IC50,[5],400 nM
same,IC50,[6],10000 nM
SSDLYLVTRHADVIPVRRRGDSRGSLL [13N 1127-1153],IC50,[1],500 nM
same,IC50,[19],17 nM
same,IC50,[3],3500 nM
same,IC50,[4],17 nM
same,IC50,[5],700 nM
same,IC50,[6],> 10000 nM
same,IC50,[7],300 nM
same,IC50,[8],> 100000 nM
same,IC50,[16],> 100000 nM
PQDVKFPGGGQIVGGVYLLPRRGPRLGVR [1C 19-47],IC50,[1],9 nM
same,IC50,[3],70000 nM
same,IC50,[15],6000 nM
same,IC50,[4],58 nM
same,IC50,[5],350 nM
same,IC50,[6],> 100000 nM
same,IC50,[16],> 100000 nM
GCIITSLTGRDKNQV (modifications not checked) [9N 1041-1055],IC50,[10],2900 nM
same,IC50,[11],11 nM
same,IC50,[12],2600 nM
same,IC50,[13],190 nM
same,IC50,[20],62500 nM
same,IC50,[21],65000 nM
same,IC50,[14],525 nM
DPNIRTGVRTITTGSPITYSTYGKFLADGG [19N 1275-1304],IC50,[2],550 nM
same,IC50,[3],500 nM
same,IC50,[15],3500 nM
same,IC50,[5],150 nM
same,IC50,[6],150 nM
same,IC50,[7],> 100000 nM
same,IC50,[16],> 100000 nM
"TRGLLGCIITSLTGRDKNQV (modifications not checked) [9N 1036-1055, P26664 1036-1055]",IC50,[9],2600 nM
same,IC50,[10],950 nM
same,IC50,[11],53 nM
same,IC50,[12],700 nM
same,IC50,[13],51 nM
same,IC50,[21],1000 nM
same,IC50,[14],5500 nM
VGGVYLLPRRGPRLGVRATRKTSERSQ [2C 31-57],IC50,[17],> 100000 nM
same,IC50,[8],> 100000 nM
IEEVALSTTGEIPFYGKAIPLEVIKG [22N 1362-1387],IC50,[5],33 nM
AAKLVALGINAVAYYRGLDVSVIPTSGDV [24N 1404-1432],IC50,[17],7040 nM
same,IC50,[8],32700 nM
